The results in this text go back to publication PMC3720618, “Computational and Experimental Insights into the Mechanism of Substrate Recognition and Feedback Inhibition of Protoporphyrinogen Oxidase” (PLoS ONE, 2013).

The target of data set [1] is T1, human protoporphyrinogen IX oxidase (hPPO) (Homo sapiens, UniProt P50336).
T1 construct: gene PPOX
T1 sequence (P50336 1-477): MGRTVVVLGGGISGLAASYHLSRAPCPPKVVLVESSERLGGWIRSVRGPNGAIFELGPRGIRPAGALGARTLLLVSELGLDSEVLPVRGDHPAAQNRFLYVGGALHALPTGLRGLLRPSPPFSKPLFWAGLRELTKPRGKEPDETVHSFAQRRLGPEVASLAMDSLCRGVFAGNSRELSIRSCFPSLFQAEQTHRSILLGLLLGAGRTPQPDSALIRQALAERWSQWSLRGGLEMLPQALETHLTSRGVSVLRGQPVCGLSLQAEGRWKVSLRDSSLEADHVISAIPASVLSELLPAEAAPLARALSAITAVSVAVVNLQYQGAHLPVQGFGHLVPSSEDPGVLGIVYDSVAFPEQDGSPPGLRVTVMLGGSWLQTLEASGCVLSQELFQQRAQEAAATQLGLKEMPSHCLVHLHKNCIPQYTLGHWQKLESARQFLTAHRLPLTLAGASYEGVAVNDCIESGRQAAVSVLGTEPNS
The experiment in a line: fluorescence product-formation time courses showing feedback (product) inhibition. It counts as biochemical.

Substrate in the data set “purified protein”: C=Cc1c2[nH]c(c1C)Cc1[nH]c(c(CCC(=O)O)c1C)Cc1[nH]c(c(C)c1CCC(=O)O)Cc1[nH]c(c(C)c1C=C)C2
The experiment in a line: purified protein.

Substrate in data set [2]: C=Cc1c2[nH]c(c1C)Cc1[nH]c(c(CCC(=O)O)c1C)Cc1[nH]c(c(C)c1CCC(=O)O)Cc1[nH]c(c(C)c1C=C)C2
The experiment in a line: continuous fluorometric enzyme kinetics on purified hPPO (Km). The class given is biochemical, Homo sapiens. The conditions noted are these: FAD active site next to FAD; model: R97, L166, R168, G169, V170, F331, L334, M368.

On to `C=CC1=C(C)c2cc3[nH]c(cc4nc(cc5[nH]c(cc1n2)c(C)c5CCC(=O)O)C(CCC(=O)O)=C4C)c(C)c3C=C` [protoporphyrin IX], for which the “fluorescence product-formation time courses showing feedback (product) inhibitio” value in data set [1] is listed as “The product inhibition phenomenon was obvious at low concentrations of PPO”.

B1: human protoporphyrinogen IX oxidase (hPPO) (Homo sapiens; L166N) (protein)
chain: MGRTVVVLGGGISGLAASYHLSRAPCPPKVVLVESSERLGGWIRSVRGPNGAIFELGPRGIRPAGALGARTLLLVSELGLDSEVLPVRGDHPAAQNRFLYVGGALHALPTGLRGLLRPSPPFSKPLFWAGLRELTKPRGKEPDETVHSFAQRRLGPEVASLAMDSNCRGVFAGNSRELSIRSCFPSLFQAEQTHRSILLGLLLGAGRTPQPDSALIRQALAERWSQWSLRGGLEMLPQALETHLTSRGVSVLRGQPVCGLSLQAEGRWKVSLRDSSLEADHVISAIPASVLSELLPAEAAPLARALSAITAVSVAVVNLQYQGAHLPVQGFGHLVPSSEDPGVLGIVYDSVAFPEQDGSPPGLRVTVMLGGSWLQTLEASGCVLSQELFQQRAQEAAATQLGLKEMPSHCLVHLHKNCIPQYTLGHWQKLESARQFLTAHRLPLTLAGASYEGVAVNDCIESGRQAAVSVLGTEPNS
Consider B1, for which, in “purified protein” (FAD substrate ring C), the Km (commonly the substrate concentration at which the rate is half of its maximum) worked out at 5.13 µM; the catalytic constant (kcat) (usually the number of substrate molecules converted per active site and unit of time at saturation) was 0.0303 ± 0.00217 s⁻¹; the specificity constant (kcat/Km) (as a rule, the turnover number divided by the Michaelis constant) amounted to 5830 M⁻¹ s⁻¹.

B2: human protoporphyrinogen IX oxidase (hPPO) (Homo sapiens; F331A) (protein)
chain: MGRTVVVLGGGISGLAASYHLSRAPCPPKVVLVESSERLGGWIRSVRGPNGAIFELGPRGIRPAGALGARTLLLVSELGLDSEVLPVRGDHPAAQNRFLYVGGALHALPTGLRGLLRPSPPFSKPLFWAGLRELTKPRGKEPDETVHSFAQRRLGPEVASLAMDSLCRGVFAGNSRELSIRSCFPSLFQAEQTHRSILLGLLLGAGRTPQPDSALIRQALAERWSQWSLRGGLEMLPQALETHLTSRGVSVLRGQPVCGLSLQAEGRWKVSLRDSSLEADHVISAIPASVLSELLPAEAAPLARALSAITAVSVAVVNLQYQGAHLPVQGAGHLVPSSEDPGVLGIVYDSVAFPEQDGSPPGLRVTVMLGGSWLQTLEASGCVLSQELFQQRAQEAAATQLGLKEMPSHCLVHLHKNCIPQYTLGHWQKLESARQFLTAHRLPLTLAGASYEGVAVNDCIESGRQAAVSVLGTEPNS
Consider B2, for which, in “purified protein” (FAD substrate ring D), the Km came to 6.60 µM, the kcat stood at 0.0727 ± 0.0065 s⁻¹ and the specificity constant (kcat/Km) turned out to be 11000 M⁻¹ s⁻¹.

B3: human protoporphyrinogen IX oxidase (hPPO) (Homo sapiens) (protein)
chain: MGRTVVVLGGGISGLAASYHLSRAPCPPKVVLVESSERLGGWIRSVRGPNGAIFELGPRGIRPAGALGARTLLLVSELGLDSEVLPVRGDHPAAQNRFLYVGGALHALPTGLRGLLRPSPPFSKPLFWAGLRELTKPRGKEPDETVHSFAQRRLGPEVASLAMDSLCRGVFAGNSRELSIRSCFPSLFQAEQTHRSILLGLLLGAGRTPQPDSALIRQALAERWSQWSLRGGLEMLPQALETHLTSRGVSVLRGQPVCGLSLQAEGRWKVSLRDSSLEADHVISAIPASVLSELLPAEAAPLARALSAITAVSVAVVNLQYQGAHLPVQGFGHLVPSSEDPGVLGIVYDSVAFPEQDGSPPGLRVTVMLGGSWLQTLEASGCVLSQELFQQRAQEAAATQLGLKEMPSHCLVHLHKNCIPQYTLGHWQKLESARQFLTAHRLPLTLAGASYEGVAVNDCIESGRQAAVSVLGTEPNS
Regarding B3, in data set [2], the Km amounted to 2.08 µM, the kcat worked out at 0.0495 ± 0.0025 s⁻¹ and the kcat/Km turned out to be 23800 M⁻¹ s⁻¹.

B4: human protoporphyrinogen IX oxidase (hPPO) (Homo sapiens; M368K) (protein)
chain: MGRTVVVLGGGISGLAASYHLSRAPCPPKVVLVESSERLGGWIRSVRGPNGAIFELGPRGIRPAGALGARTLLLVSELGLDSEVLPVRGDHPAAQNRFLYVGGALHALPTGLRGLLRPSPPFSKPLFWAGLRELTKPRGKEPDETVHSFAQRRLGPEVASLAMDSLCRGVFAGNSRELSIRSCFPSLFQAEQTHRSILLGLLLGAGRTPQPDSALIRQALAERWSQWSLRGGLEMLPQALETHLTSRGVSVLRGQPVCGLSLQAEGRWKVSLRDSSLEADHVISAIPASVLSELLPAEAAPLARALSAITAVSVAVVNLQYQGAHLPVQGFGHLVPSSEDPGVLGIVYDSVAFPEQDGSPPGLRVTVKLGGSWLQTLEASGCVLSQELFQQRAQEAAATQLGLKEMPSHCLVHLHKNCIPQYTLGHWQKLESARQFLTAHRLPLTLAGASYEGVAVNDCIESGRQAAVSVLGTEPNS
In the case of B4, in “purified protein” (FAD substrate ring A), the Km is reported as 5.63 µM, the catalytic constant (kcat) turned out to be 0.236 ± 0.0183 s⁻¹ and the specificity constant (kcat/Km) amounted to 42000 M⁻¹ s⁻¹.

B5: human protoporphyrinogen IX oxidase (hPPO) (Homo sapiens; F331T) (protein)
chain: MGRTVVVLGGGISGLAASYHLSRAPCPPKVVLVESSERLGGWIRSVRGPNGAIFELGPRGIRPAGALGARTLLLVSELGLDSEVLPVRGDHPAAQNRFLYVGGALHALPTGLRGLLRPSPPFSKPLFWAGLRELTKPRGKEPDETVHSFAQRRLGPEVASLAMDSLCRGVFAGNSRELSIRSCFPSLFQAEQTHRSILLGLLLGAGRTPQPDSALIRQALAERWSQWSLRGGLEMLPQALETHLTSRGVSVLRGQPVCGLSLQAEGRWKVSLRDSSLEADHVISAIPASVLSELLPAEAAPLARALSAITAVSVAVVNLQYQGAHLPVQGTGHLVPSSEDPGVLGIVYDSVAFPEQDGSPPGLRVTVMLGGSWLQTLEASGCVLSQELFQQRAQEAAATQLGLKEMPSHCLVHLHKNCIPQYTLGHWQKLESARQFLTAHRLPLTLAGASYEGVAVNDCIESGRQAAVSVLGTEPNS
With B5, in “purified protein” (FAD substrate ring D), the Km is given as 3.02 µM, the kcat came out at 0.151 ± 0.0127 s⁻¹ and the kcat/Km amounted to 50200 M⁻¹ s⁻¹.

B6: human protoporphyrinogen IX oxidase (hPPO) (Homo sapiens; R168S) (protein)
chain: MGRTVVVLGGGISGLAASYHLSRAPCPPKVVLVESSERLGGWIRSVRGPNGAIFELGPRGIRPAGALGARTLLLVSELGLDSEVLPVRGDHPAAQNRFLYVGGALHALPTGLRGLLRPSPPFSKPLFWAGLRELTKPRGKEPDETVHSFAQRRLGPEVASLAMDSLCSGVFAGNSRELSIRSCFPSLFQAEQTHRSILLGLLLGAGRTPQPDSALIRQALAERWSQWSLRGGLEMLPQALETHLTSRGVSVLRGQPVCGLSLQAEGRWKVSLRDSSLEADHVISAIPASVLSELLPAEAAPLARALSAITAVSVAVVNLQYQGAHLPVQGFGHLVPSSEDPGVLGIVYDSVAFPEQDGSPPGLRVTVMLGGSWLQTLEASGCVLSQELFQQRAQEAAATQLGLKEMPSHCLVHLHKNCIPQYTLGHWQKLESARQFLTAHRLPLTLAGASYEGVAVNDCIESGRQAAVSVLGTEPNS
Consider B6, for which, in the data set “purified protein” (FAD substrate ring A), the Km came out at 11.33 µM, the catalytic constant (kcat) is 0.0553 ± 0.00367 s⁻¹ and the catalytic efficiency (kcat/Km) was determined as 4830 M⁻¹ s⁻¹.

B7: human protoporphyrinogen IX oxidase (hPPO) (Homo sapiens; V170T) (protein)
chain: MGRTVVVLGGGISGLAASYHLSRAPCPPKVVLVESSERLGGWIRSVRGPNGAIFELGPRGIRPAGALGARTLLLVSELGLDSEVLPVRGDHPAAQNRFLYVGGALHALPTGLRGLLRPSPPFSKPLFWAGLRELTKPRGKEPDETVHSFAQRRLGPEVASLAMDSLCRGTFAGNSRELSIRSCFPSLFQAEQTHRSILLGLLLGAGRTPQPDSALIRQALAERWSQWSLRGGLEMLPQALETHLTSRGVSVLRGQPVCGLSLQAEGRWKVSLRDSSLEADHVISAIPASVLSELLPAEAAPLARALSAITAVSVAVVNLQYQGAHLPVQGFGHLVPSSEDPGVLGIVYDSVAFPEQDGSPPGLRVTVMLGGSWLQTLEASGCVLSQELFQQRAQEAAATQLGLKEMPSHCLVHLHKNCIPQYTLGHWQKLESARQFLTAHRLPLTLAGASYEGVAVNDCIESGRQAAVSVLGTEPNS
In the case of B7, in “purified protein” (FAD substrate ring B), the Km was found to be 2.97 µM, the catalytic constant (kcat) was 0.128 ± 0.011 s⁻¹ and the kcat/Km worked out at 43200 M⁻¹ s⁻¹.

B8: human protoporphyrinogen IX oxidase (hPPO) (Homo sapiens; L334V) (protein)
chain: MGRTVVVLGGGISGLAASYHLSRAPCPPKVVLVESSERLGGWIRSVRGPNGAIFELGPRGIRPAGALGARTLLLVSELGLDSEVLPVRGDHPAAQNRFLYVGGALHALPTGLRGLLRPSPPFSKPLFWAGLRELTKPRGKEPDETVHSFAQRRLGPEVASLAMDSLCRGVFAGNSRELSIRSCFPSLFQAEQTHRSILLGLLLGAGRTPQPDSALIRQALAERWSQWSLRGGLEMLPQALETHLTSRGVSVLRGQPVCGLSLQAEGRWKVSLRDSSLEADHVISAIPASVLSELLPAEAAPLARALSAITAVSVAVVNLQYQGAHLPVQGFGHVVPSSEDPGVLGIVYDSVAFPEQDGSPPGLRVTVMLGGSWLQTLEASGCVLSQELFQQRAQEAAATQLGLKEMPSHCLVHLHKNCIPQYTLGHWQKLESARQFLTAHRLPLTLAGASYEGVAVNDCIESGRQAAVSVLGTEPNS
Turning to B8, in the data set “purified protein” (FAD substrate ring D), the Michaelis constant (Km) was 7.08 µM, the turnover number (kcat) stood at 0.853 ± 0.103 s⁻¹ and the kcat/Km was determined as 120000 M⁻¹ s⁻¹.

B9: human protoporphyrinogen IX oxidase (hPPO) (Homo sapiens; G169A) (protein)
chain: MGRTVVVLGGGISGLAASYHLSRAPCPPKVVLVESSERLGGWIRSVRGPNGAIFELGPRGIRPAGALGARTLLLVSELGLDSEVLPVRGDHPAAQNRFLYVGGALHALPTGLRGLLRPSPPFSKPLFWAGLRELTKPRGKEPDETVHSFAQRRLGPEVASLAMDSLCRAVFAGNSRELSIRSCFPSLFQAEQTHRSILLGLLLGAGRTPQPDSALIRQALAERWSQWSLRGGLEMLPQALETHLTSRGVSVLRGQPVCGLSLQAEGRWKVSLRDSSLEADHVISAIPASVLSELLPAEAAPLARALSAITAVSVAVVNLQYQGAHLPVQGFGHLVPSSEDPGVLGIVYDSVAFPEQDGSPPGLRVTVMLGGSWLQTLEASGCVLSQELFQQRAQEAAATQLGLKEMPSHCLVHLHKNCIPQYTLGHWQKLESARQFLTAHRLPLTLAGASYEGVAVNDCIESGRQAAVSVLGTEPNS
On to B9, for which, in “purified protein” (FAD substrate ring C), the Michaelis-Menten constant (Km) is given as 2.16 µM, the kcat is 0.00617 ± 0.000667 s⁻¹ and the catalytic efficiency (kcat/Km) was 2830 M⁻¹ s⁻¹.
